The source of these data is patent publication US20260055179A1 (ALENTIS THERAPEUTICS, published 2026).

The target of this test is T1, human Claudin-1 (CLDN1) (human, UniProt O95832 1-211).
T1 construct: whole, on cells; Transmembrane tight-junction protein, endogenously expressed on primary human cholangiocytes in the flow cytometry assay
T1 sequence (looked up): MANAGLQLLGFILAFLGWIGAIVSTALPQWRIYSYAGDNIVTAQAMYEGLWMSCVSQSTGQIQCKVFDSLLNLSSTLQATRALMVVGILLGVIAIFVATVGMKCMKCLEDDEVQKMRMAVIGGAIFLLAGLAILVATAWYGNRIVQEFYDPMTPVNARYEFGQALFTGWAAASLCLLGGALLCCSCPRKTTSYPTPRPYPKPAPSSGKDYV
The experiment in a line: flow cytometry on primary human cholangiocytes (HBEpiC) after 10 ng/ml TNFalpha for 24 h; anti-human AF647 secondary antibody. Here is the method:
Primary human cholangiocytes were purchased from Innoprot, Bizkaia, Spain (Human Biliary Epithelial Cells, HBEpiC, ref. P10654; Batch #21614) and cultured on poly-1-lysine-coated surfaces according to manufacturer's instructions. Following stimulation, with 10 ng/ml TNFα for 24 hours, cells were harvested for assessment of CLDN1 expression by flow cytometry using anti-CLDN1 mAb H3L3 (Colpitts et al. 2018) and an anti-human AF647-conjugated secondary antibody.

B1: anti-CLDN1 mAb H3L3 (antibody, human IgG1, kappa, V domains shown)
VH: QVQLVESGGGVVQPGRSLRLSCLGSGFSFSSYGMNWVRQAPGKGLEWVASISPSGSYFYYADSVKGRFTISRDNSKNTLYLQMTSLRAEDTAIYYCARLPGFNPPFDHWGQGTLVTVSS
VL: DIQMTQSPSSLSASVGDRVTITCKASQNVGGNVDWYQWKPGKAPKLLIYGASNRYTGVPDRFRGSGSGTDFTLTISSLQPEDVATYYCLQYKNNPWTFGGGTKVEIKR
notes: Humanized anti-Claudin-1 monoclonal antibody; also called CLDN1 H3L3; CLDN1-specific H3L3 mAb
As for B1, the binding result was “binds”.
